The values that follow come from patent US20250326862A1, “Antibody or Fragment Thereof Binding Specifically to Mertk, and Anti-Tumor Agent” (Chiome Bioscience Inc., priority 2021, published 2025).

The target in test [1] is T1, human MerTK on cells (EL4 cells stably expressing human MerTK); human melanoma cell line G361 intrinsically … (human, UniProt Q12866 21-999).
T1 construct: whole, on cells; also called hMerTK-EL4
T1 sequence (looked up): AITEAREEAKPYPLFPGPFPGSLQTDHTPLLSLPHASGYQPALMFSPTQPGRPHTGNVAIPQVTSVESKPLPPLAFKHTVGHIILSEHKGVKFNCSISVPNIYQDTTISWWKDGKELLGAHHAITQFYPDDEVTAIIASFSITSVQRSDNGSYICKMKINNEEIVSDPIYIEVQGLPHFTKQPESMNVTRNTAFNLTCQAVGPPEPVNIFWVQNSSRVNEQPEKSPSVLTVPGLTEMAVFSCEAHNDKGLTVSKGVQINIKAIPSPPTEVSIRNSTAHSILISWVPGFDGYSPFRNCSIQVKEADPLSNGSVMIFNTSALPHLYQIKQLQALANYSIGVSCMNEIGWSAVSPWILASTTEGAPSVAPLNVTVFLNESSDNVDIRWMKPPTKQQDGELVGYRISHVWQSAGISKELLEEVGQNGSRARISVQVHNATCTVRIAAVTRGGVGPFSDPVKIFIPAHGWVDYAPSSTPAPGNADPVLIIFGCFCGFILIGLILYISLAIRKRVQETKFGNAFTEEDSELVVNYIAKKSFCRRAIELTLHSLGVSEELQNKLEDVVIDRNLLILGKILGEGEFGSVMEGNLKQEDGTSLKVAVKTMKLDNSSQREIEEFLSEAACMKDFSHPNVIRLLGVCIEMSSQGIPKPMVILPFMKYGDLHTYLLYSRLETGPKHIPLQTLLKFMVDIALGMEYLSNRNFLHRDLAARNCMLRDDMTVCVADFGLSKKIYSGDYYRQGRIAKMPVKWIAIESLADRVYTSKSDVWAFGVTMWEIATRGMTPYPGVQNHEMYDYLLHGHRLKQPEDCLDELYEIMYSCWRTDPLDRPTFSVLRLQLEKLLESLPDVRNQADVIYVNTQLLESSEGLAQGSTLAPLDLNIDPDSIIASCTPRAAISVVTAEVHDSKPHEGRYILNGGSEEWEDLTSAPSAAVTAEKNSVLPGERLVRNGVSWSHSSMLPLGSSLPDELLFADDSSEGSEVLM
The test is described as follows: inferred from inhibition of Gas6-induced MerTK phosphorylation on hMerTK-EL4 cells. As to the method:
The cells (hMerTK-EL4) stably expressing human MerTK were cultured in a “DMEM high glucose medium” (Thermo Fisher Scientific Inc.) containing 10% FBS. After the cultivation, the cells were washed in PBS, suspended in a serum-free medium, plated in a 96-well plate at 1×10⁶ cells/well and incubated at 37° C. for 3 hours. After the incubation, the respective clones were added, the hMerTK-EL4 was allowed to react for 1 hour, stimulated with 200 nM human Gas6 (R&D Systems) for 10 minutes and centrifuged and collected. The collected hMerTK-EL4 was lysed in a cell lysis solution, and the level of the phosphorylated MerTK protein in the lysate was determined using “Human Phospho-Mer DuoSet IC ELISA” (R&D Systems). The cell lysis solution used contained 1% “IGEPAL CA-630” (SIGMA) and 1×concentration of “Halt Protease and Phosphatase Inhibitor Single-Use Inhibitor Cocktail” (Thermo Fisher Scientific Inc.) added to MilliQ water.
Among these 14 clones, “20A77” and “24A1” were selected as clones showing particularly high inhibitory activity and subjected to the following tests.

Test [2] addresses T2, binding of MerTK with Gas6 (Homo sapiens, UniProt Q12866).
T2 construct: purchased R&D Systems
T2 sequence (Q12866 26-499 limits assumed): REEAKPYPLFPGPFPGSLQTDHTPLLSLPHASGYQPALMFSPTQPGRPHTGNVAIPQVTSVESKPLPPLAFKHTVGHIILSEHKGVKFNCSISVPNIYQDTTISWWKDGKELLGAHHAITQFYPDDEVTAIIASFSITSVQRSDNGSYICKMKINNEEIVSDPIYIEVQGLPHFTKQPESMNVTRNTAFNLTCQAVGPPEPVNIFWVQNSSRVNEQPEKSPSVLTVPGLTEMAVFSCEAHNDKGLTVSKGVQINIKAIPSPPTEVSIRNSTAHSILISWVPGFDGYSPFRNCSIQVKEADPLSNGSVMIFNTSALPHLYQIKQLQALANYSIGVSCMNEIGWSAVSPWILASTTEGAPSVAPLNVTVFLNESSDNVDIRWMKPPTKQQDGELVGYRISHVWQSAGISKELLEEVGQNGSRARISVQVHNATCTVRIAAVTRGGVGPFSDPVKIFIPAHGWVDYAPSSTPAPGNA
The test is described as follows: Test 6: ligand binding inhibition ELISA, MerTK with Gas6. Conditions: human MerTK 5 μg/ml immobilized; biotinylated Gas6 10 nM; FIGS. 13 and 15. As to the method: (§1) “20A77” and “24A1” were evaluated for the ability to inhibit binding of MerTK with various ligands. The MerTK ligands used were human Gas6 (R&D Systems) and human TULP1 (abcam plc.) which were respectively biotinylated using “Biotin Labeling Kit-NH” (Dojindo Laboratories Co., Ltd.). […] TULP1 is a ligand correlated with ocular toxicity, and an antibody having an activity to inhibit binding of MerTK with TULP1 may have ocular toxicity. Thus, an antibody having high inhibitory activity of binding to Gas6 and low inhibitory activity of binding to TULP1 may be an efficacious anti-tumor agent having low ocular toxicity.
(§2) The ligand binding inhibition test was carried out as indicated below. First, human MerTK (R&D Systems) was added to an ELISA plate (Nunc) at a concentration of 5 μg/ml and immobilized overnight at room temperature. After removing the immobilization solution, 1% BSA/PBS was added for blocking reaction and left to stand at room temperature for 1 hour. After the blocking, the plate was washed with 0.05% Tween 20/PBS and an antibody solution was added for primary reaction at room temperature for 1 hour. […] After washing, a chromogenic substrate solution of TMB (Dako) was added for chromogenic reaction for 20 minutes, 1 N sulfuric acid was added to terminate the reaction and the absorbance was measured at 450 nm.

Test [3] addresses T3, binding of MerTK with TULP1 (Homo sapiens, UniProt Q12866).
T3 construct: purchased R&D Systems
T3 sequence (Q12866 26-499 limits assumed): T2 sequence (Q12866 26-499 limits assumed)
As to the kind of experiment: Test 6: ligand binding inhibition ELISA, MerTK with TULP1. The conditions noted are these: human MerTK 5 μg/ml immobilized; biotinylated TULP1 40 nM; FIGS. 14 and 16. As to the method:
as §1, §2

Test [4] has as its target T4, human MerTK (Homo sapiens, UniProt Q12866).
T4 sequence (Q12866 21-999): T1 sequence (looked up)
The test is described as follows: MerTK phosphorylation inhibition test in hMerTK-EL4 cells stimulated with human Gas6. The test is classed as cell-based. Set-up: expressed in transfected cells; host or cells: mouse lymphoma cell line EL4 (hMerTK-EL4). Conditions: hMerTK-EL4, antibody 1 hour, then 200 nM human Gas6 for 10 minutes; phospho-Mer ELISA; FIG. 1. As to the method: On the basis of the procedures indicated below, the clones were evaluated for MerTK phosphorylation inhibitory activity. Higher activity means higher binding ability to MerTK.
The cells (hMerTK-EL4) stably expressing human MerTK were cultured in a “DMEM high glucose medium” (Thermo Fisher Scientific Inc.) containing 10% FBS. After the cultivation, the cells were washed in PBS, suspended in a serum-free medium, plated in a 96-well plate at 1×10^6 cells/well and incubated at 37° C. for 3 hours. After the incubation, the respective clones were added, the hMerTK-EL4 was allowed to react for 1 hour, stimulated with 200 nM human Gas6 (R&D Systems) for 10 minutes and centrifuged and collected. The collected hMerTK-EL4 was lysed in a cell lysis solution, and the level of the phosphorylated MerTK protein in the lysate was determined using “Human Phospho-Mer DuoSet IC ELISA” (R&D Systems). The cell lysis solution used contained 1% “IGEPAL CA-630” (SIGMA) and 1×concentration of “Halt Protease and Phosphatase Inhibitor Single-Use Inhibitor Cocktail” (Thermo Fisher Scientific Inc.) added to MilliQ water.

Test [5] deals with T5, rat MerTKECD-hFc (rat, UniProt P57097 19-497).
T5 construct: extracellular domain; Prepared in the same manner as hMerTKECD-mFc and mMerTKECD-mFc; not shown: human Fc
T5 sequence (looked up): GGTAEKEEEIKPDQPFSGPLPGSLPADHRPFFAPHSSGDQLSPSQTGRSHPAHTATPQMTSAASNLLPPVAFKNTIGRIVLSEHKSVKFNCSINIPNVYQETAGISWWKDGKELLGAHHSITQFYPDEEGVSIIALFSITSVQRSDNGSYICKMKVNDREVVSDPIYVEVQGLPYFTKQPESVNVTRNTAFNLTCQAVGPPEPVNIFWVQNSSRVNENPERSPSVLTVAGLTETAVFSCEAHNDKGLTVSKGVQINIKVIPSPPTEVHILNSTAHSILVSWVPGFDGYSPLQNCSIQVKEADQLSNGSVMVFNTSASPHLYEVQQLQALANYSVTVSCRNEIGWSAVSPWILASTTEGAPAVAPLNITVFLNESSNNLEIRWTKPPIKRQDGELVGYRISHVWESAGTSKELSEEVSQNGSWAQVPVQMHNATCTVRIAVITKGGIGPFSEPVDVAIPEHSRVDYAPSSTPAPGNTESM
The test is described as follows: ELISA, antigen immobilised at 5 ug/ml, HRP-labelled secondary antibody. The protocol:
(§3) The ELISA was performed according to the procedures indicated below. First, the respective antigens were added to an ELISA plate (Nunc) at a concentration of 5 μg/ml and immobilized overnight at room temperature. After removing the immobilization solution, 1% BSA/PBS was added for blocking reaction and left to stand at room temperature for 1 hour. After the blocking, the plate was washed with 0.05% Tween 20/PBS and an antibody solution was added for primary reaction at room temperature for 1 hour. After washing, an HRP-labelled antibody (GE Healthcare) was added for secondary reaction for 1 hour. After washing, a chromogenic substrate solution of TMB (Dako) was added for chromogenic reaction for 10 minutes, 1 N sulfuric acid was added to terminate the reaction and the absorbance was measured at 450 nm.

Test [6] deals with T6, Recombinant Mouse Mer Fc Chimera Protein (R&D systems) (mouse, UniProt Q60805 23-496, limits assumed).
T6 construct: Bought reagent; also called mouse MerTK antigen; human Fc fusion protein of mouse MerTK; not shown: human Fc
T6 sequence (looked up): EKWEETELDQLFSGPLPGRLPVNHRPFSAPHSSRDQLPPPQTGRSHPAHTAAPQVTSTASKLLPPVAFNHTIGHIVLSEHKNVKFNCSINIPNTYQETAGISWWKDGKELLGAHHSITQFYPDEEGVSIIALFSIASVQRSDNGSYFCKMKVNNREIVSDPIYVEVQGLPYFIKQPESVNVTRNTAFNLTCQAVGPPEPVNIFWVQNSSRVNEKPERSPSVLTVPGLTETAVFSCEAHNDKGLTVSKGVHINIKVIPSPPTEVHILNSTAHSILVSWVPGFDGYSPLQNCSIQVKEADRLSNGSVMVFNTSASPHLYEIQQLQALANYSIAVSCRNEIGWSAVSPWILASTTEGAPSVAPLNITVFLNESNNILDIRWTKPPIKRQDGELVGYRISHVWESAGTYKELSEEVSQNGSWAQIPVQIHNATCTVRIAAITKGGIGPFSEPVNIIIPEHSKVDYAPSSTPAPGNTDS
Described as above. As to the method: as §3

The target of test [7] is T7, Recombinant Human Mer Fc Chimera Protein (R&D systems) (human, UniProt Q12866 26-499, limits assumed).
T7 construct: Bought reagent; also called human MerTK antigen; human Fc fusion protein of human MerTK; not shown: human Fc
T7 sequence (looked up): T2 sequence (Q12866 26-499 limits assumed)
The description is as above. The protocol:
as §3

Substitutions are numbered along the chain they refer to. “Also recorded” adds a separate entry of the source.

B1: 20A77 (antibody, V domains shown)
VH: QVQLQQPGTELVKPGASVKLSCRASGNTFTSYWMHWVKQRPGQGLEWIGNINPSNGGTNYNEKFKSKATLTVDKSSSTAYMQLSSLTSEDSAVYYCARLNYYGFDGFAFWGQGTLVTVSA
VL: DIKMTQSPSSMYASLGERVTITCKASQDINSYLSWFQQKPGKSPKTLIYRANRLVDGVPSRFSGSGSGQDYSLTISSLEYEDMGIYYCLQYDEFPFTFGSGTKLEIK
notes: Mouse monoclonal antibody from a hybridoma clone (MerTK knockout mice); In Test 2 (1) the hybridoma clone was added
As for B1, the binding result in test [1] is given as “binds”. Further, the “inhibition of binding of Gas6 with MerTK” value in test [2] was “inhibited binding of Gas6 with MerTK; also recorded: strongly inhibited binding of Gas6 with MerTK”. Besides, the “inhibition of binding of TULP1 with MerTK” value in test [3] is “did not inhibit binding of TULP1 with MerTK”. Also, the “MerTK phosphorylation inhibitory activity” value in test [4] is “inhibited binding of Gas6 with MerTK and MerTK phosphorylation in a concentration dependent manner”.

B2: m20A77_mIgG1 (antibody, V domains shown)
VH: B1 VH with N55S
VL: B1 VL with D56S
notes: CDR-modified variant of 20A77, made recombinantly with mouse IgG1 heavy chain and kappa light chain constant regions
Regarding B2, the binding result in test [5], in test [6] and in test [7] was “binds” throughout.
